Measurements published in article PMC3775802.

Experiments:
[1] = biological target: T1, human alpha-thrombin (THR) (Homo sapiens) (UniProt P00734+P00734); experiment: competition (SPRi, free thrombin quantification); conditions: 5' amino modifier C6 as ordered; 20 mM Tris-HCl pH 7.4, 1 mM MgCl2, 120 mM NaCl, 10 mM KCl; thrombin co-injected with 500 nM cytochrome c; binding temperature not stated
[2] = biological target: T1, human alpha-thrombin (THR) (Homo sapiens); experiment: back-scattering interferometry; conditions: 5' amino modifier C6 as ordered; 20 mM Tris-HCl pH 7.4, 1 mM MgCl2, 120 mM NaCl, 10 mM KCl; thrombin co-injected with 500 nM cytochrome c; binding temperature not stated; cited from earlier work

TTTTTTTTTTAGTCCGTGGTAGGGGAGGTTGGGGTGACT [APT (anti-thrombin aptamer), solution competitor]
Kd [1]: 3.16 nM
Kd [2]: 3.84 nM
